Paper PMC11461981 (Scientific Reports, 2024)
Read-outs that look alike come from different tables or passages of the source.

What was measured:
14-3-3φ = 14-3-3φ (Arabidopsis thaliana, UniProt P19456+P46077); format: binding
[1] = target: FAM-labeled phosphopeptide derived from C-terminal AHA2 (FAM-TPSHYpTV) (Arabidopsis thaliana); assay: fluorescence polarisation
[2] = target: FAM-labeled phosphopeptide derived from C-terminal AHA2 (FAM-TPSHYpTV) (Arabidopsis thaliana); assay: fluorescence polarisation; remark: listed apart in the source
[3] = target: FAM-labeled phosphopeptide derived from C-terminal AHA2 (FAM-TPSHYpTV) (Arabidopsis thaliana); assay: fluorescence polarisation; remark: listed apart in the source
[4] = target: FAM-labeled phosphopeptide derived from C-terminal AHA2 (FAM-TPSHYpTV) (Arabidopsis thaliana); assay: fluorescence polarisation; remark: listed apart in the source

Chain of 14-3-3φ (P46077 whole entry, other chains not shown): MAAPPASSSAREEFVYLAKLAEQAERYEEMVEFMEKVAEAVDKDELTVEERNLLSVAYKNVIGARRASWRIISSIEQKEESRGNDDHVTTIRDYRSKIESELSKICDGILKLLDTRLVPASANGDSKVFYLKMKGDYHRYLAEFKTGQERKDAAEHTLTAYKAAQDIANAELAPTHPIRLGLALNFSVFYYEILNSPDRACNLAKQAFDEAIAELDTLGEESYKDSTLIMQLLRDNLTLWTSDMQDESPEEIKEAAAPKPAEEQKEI

Row | Compound | Kd (14-3-3φ) [nM] | Kd [1] [nM] | Kd [2] [nM] | Kd [3] [nM] | Kd [4] [nM]
1 | C=CC(C)(C)OC[C@H]1O[C@H](O[C@@H]2C3=C([C@H](C)COC(C)=O)C[C@H](O)[C@]3(C)/C=C3/[C@@H](COC)CC[C@H]3[C@@H](C)[C@H]2O)[C@H](O)[C@@H](OC(C)=O)[C@@H]1O [FC-A, Fusicoccin-A] | 150 ± 30 | – | – | – | –
2 | recombinant Arabidopsis thaliana His-14-3-3φ (from UniProt P46077 1-267) (natural protein) | – | 890 | 530 | 150 | 160
